Patent US20250101100A1
Blank lines part the entries; values can stand above or below the binder they belong to.

What was measured:
[1] = biological target: mouse NKG2A on cells (mouse); assay: blockade of Qa-1b tetramer binding to mNKG2A-expressing CHO cells
[2] = biological target: mouse NKG2A on cells (mouse); assay: binding to mNKG2A-expressing CHO cells
[3] = biological target: human NKG2A-CD94 heterodimer (extracellular domains) (human) (UniProt Q13241); assay: SPR Biacore T200, 37 °C, antibody captured by anti-human Fc on C1 chip, hNKG2A-hCD94 as analyte
[4] = biological target: cynomolgus monkey NKG2C on CHO cells (cynomolgus monkey); assay: cell binding on CHO-cyno NKG2C cells

Sequence of human NKG2A-CD94 heterodimer (extracellular domains) (human) (chain, as listed by the source, chain 1 of 2): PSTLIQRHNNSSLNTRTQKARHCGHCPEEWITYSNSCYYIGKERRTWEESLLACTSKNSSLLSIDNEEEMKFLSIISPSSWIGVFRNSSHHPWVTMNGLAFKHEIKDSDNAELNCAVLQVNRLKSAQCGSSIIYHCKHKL
Sequence of human NKG2A-CD94 heterodimer (extracellular domains) (human) (Q13241 32-179, chain 2 of 2): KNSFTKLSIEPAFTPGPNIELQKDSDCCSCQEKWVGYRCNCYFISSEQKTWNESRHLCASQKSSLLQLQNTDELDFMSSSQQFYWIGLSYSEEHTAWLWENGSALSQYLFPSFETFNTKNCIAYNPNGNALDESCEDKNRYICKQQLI

IC50 [1]: 0.4 nM
EC50 [2]: 0.3 nM
B1: NKG2A.3 antibody (anti-mNKG2A surrogate, mIgG1-D265A) (antibody, V domains shown)
VH: QVQLKQSGAELVKPGASVKISCKTSGYTFTDGYMHWVEQNPGQGLEWIGRIDPDSGYTMYNQKFQDKATLTRDKSSSTVYMELRSLTSEDSAVYYCAINYGEYWYFDFWGQGTQVTVSS
VL: DIVMTQSPSSLAVSAGDKVTINCKSSQTLFSGRYNYLAWYQQKTGQAPKLLIYYTSTRHTGVPGRFIGSGSGTDFTLTINNLQTEDLGNYYCQQHYSTPYTFGAGTNLEIRR

Half-life of Antibody/Analyte Complex [3]: 3 to 4 s
Kd [3]: 25 nM
koff [3]: 0.2 s⁻¹
kon [3]: 8e+06 M⁻¹ s⁻¹
B2: Z270 (antibody, from another filing, V domains shown)
VH: QVQLQQPGAELVRPGASVKLSCKASGYTFTSYWMNWVKQRPEQGLQWIGRIDPYDSETHYSQKFKDKAILTVDKSSSTAYMRLSSLTSEDSAVYYCARGGYDFDVGTLYWFFDVWGAGTTVTVS
VL: DIQMTQSPASLSASVGETVTITCRASENIYSYLAWYQQKQGKSPQFLVYNAKTLAEGVPSRFSGSGSGTQFSLKINSLQPEDFGSYYCQHHYGTPRTFGGGTKLEIK

EC50 [4]: 0.8 nM
B3: NKG2A.9 antibody (antibody, human IgG1, kappa, V domains shown)
VH: EVQLVESGGGLVKPGGSLRLSCAASGFTFSSHSMNWVRQAPGKGLEWVSAISSSSSYIYYADSVKGRFTISRDNAKNSLYLQMNSLRAEDTAVYYCAREEWGLPFDYWGQGTLVTVSS
VL: AIQLTQSPSSLSASVGDRVTITCRASQGISSALAWYQQKPGKAPKLLIYDASSLKSGVPSRFSGSGSGTDFTLTISSLQPEDFATYYCQQFNSYPLTFGQGTRLEIKR
